Source: US6319692

System: phiFSW integrase (Int) (Lactobacillus casei temperate phage phiFSW)
Assay: cell_activity

| Substance | activity (transformants/ug DNA) (chromosomal attB as integration site, attB lost and attL/attR formed in all analysed transformants, in vivo, no direct binding measured) | activity (transformants/ug DNA) (pMSK742 integration into YIT9029 chromosome via attP x attB, no transformants when int region deleted, attL and attR confirmed by PCR, Southern and sequencing) |
| --- | --- | --- |
| attB (L. casei YIT9029) | 1000 | – |
| attP (phiFSW) | – | 1000 |
